The values below come from US20260028399A1.

In assay [1] the target is T1, human CD96 (human) (UniProt P40200).
T1 sequence: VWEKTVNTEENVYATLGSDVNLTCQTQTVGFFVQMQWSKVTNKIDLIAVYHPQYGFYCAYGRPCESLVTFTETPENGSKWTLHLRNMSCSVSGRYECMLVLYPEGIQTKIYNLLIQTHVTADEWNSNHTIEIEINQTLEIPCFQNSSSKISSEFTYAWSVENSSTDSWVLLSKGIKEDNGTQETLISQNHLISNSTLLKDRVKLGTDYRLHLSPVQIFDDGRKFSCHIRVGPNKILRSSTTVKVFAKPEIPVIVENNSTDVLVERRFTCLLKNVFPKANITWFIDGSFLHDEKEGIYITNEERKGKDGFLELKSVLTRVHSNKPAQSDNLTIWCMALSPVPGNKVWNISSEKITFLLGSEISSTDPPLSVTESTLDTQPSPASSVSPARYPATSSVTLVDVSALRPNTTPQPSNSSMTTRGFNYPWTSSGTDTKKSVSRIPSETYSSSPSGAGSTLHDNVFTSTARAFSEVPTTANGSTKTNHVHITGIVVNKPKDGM
As to the kind of experiment: phage ELISA on coated CD96 (4 ug/ml), phage 3.7 x 10^8 pfu/ml, anti-M13-HRP/TMB.

For assay [2], the target named is T1, human CD96 (human). Kind of assay: phage ELISA on coated CD96 (4 ug/ml), phage 3 x 10^9 pfu/ml, anti-M13-HRP/TMB.
In assay [3] the target is T2, human TIGIT (human) (UniProt Q495A1).
T2 sequence: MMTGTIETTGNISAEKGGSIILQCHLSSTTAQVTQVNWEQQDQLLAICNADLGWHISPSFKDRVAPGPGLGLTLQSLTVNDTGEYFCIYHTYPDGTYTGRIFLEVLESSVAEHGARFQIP
Kind of assay: phage ELISA on coated TIGIT (4 ug/ml), phage 6 x 10^9 pfu/ml, anti-M13-HRP/TMB. A general note: ELISA stands for enzyme-linked immunosorbent assay.

The target in assay [4] is T2, human TIGIT (human). As to the kind of experiment: phage ELISA on coated TIGIT (4 ug/ml), phage 7.5 x 10^8 pfu/ml, anti-M13-HRP/TMB.
The target of assay [5] is T2, human TIGIT (human). Kind of assay: phage ELISA on coated TIGIT (4 ug/ml), phage 1.5 x 10^9 pfu/ml, anti-M13-HRP/TMB.
Assay [6] concerns the target T2, human TIGIT (human). Kind of assay: phage ELISA on coated TIGIT (4 ug/ml), phage 9 x 10^7 pfu/ml, anti-M13-HRP/TMB.
For assay [7], the target named is T2, human TIGIT (human). Kind of assay: phage ELISA on coated TIGIT (4 ug/ml), phage 4.8 x 10^8 pfu/ml (so in the source), anti-M13-HRP/TMB.
Assay [8] has as its target T1, human CD96 (human). Kind of assay: phage ELISA on coated CD96 (4 ug/ml), phage 6 x 10^9 pfu/ml, anti-M13-HRP/TMB.
For assay [9], the target named is T2, human TIGIT (human). Kind of assay: phage ELISA on coated TIGIT (4 ug/ml), phage 0 pfu/ml (no phage, background), anti-M13-HRP/TMB.
The target of assay [10] is T2, human TIGIT (human). As to the kind of experiment: phage ELISA on coated TIGIT (4 ug/ml), phage 1.2 x 10^10 pfu/ml, anti-M13-HRP/TMB.
For assay [11], the target named is T1, human CD96 (human). As to the kind of experiment: phage ELISA on coated CD96 (4 ug/ml), phage 0 pfu/ml (no phage, background), anti-M13-HRP/TMB.
The target of assay [12] is T2, human TIGIT (human). As to the kind of experiment: phage ELISA on coated TIGIT (4 ug/ml), phage 3.7 x 10^8 pfu/ml, anti-M13-HRP/TMB.
The target in assay [13] is T1, human CD96 (human). As to the kind of experiment: phage ELISA on coated CD96 (4 ug/ml), phage 1.5 x 10^9 pfu/ml, anti-M13-HRP/TMB.
Assay [14] has as its target T2, human TIGIT (human). As to the kind of experiment: phage ELISA on coated TIGIT (4 ug/ml), phage 1 x 10^11 pfu/ml, anti-M13-HRP/TMB.
Assay [15] addresses T2, human TIGIT (human). Kind of assay: phage ELISA on coated TIGIT (4 ug/ml), phage 2.5 x 10^10 pfu/ml, anti-M13-HRP/TMB.
For assay [16], the target named is T1, human CD96 (human). As to the kind of experiment: phage ELISA on coated CD96 (4 ug/ml), phage 2.5 x 10^10 pfu/ml, anti-M13-HRP/TMB.
The target of assay [17] is T1, human CD96 (human). As to the kind of experiment: phage ELISA on coated CD96 (4 ug/ml), phage 1.2 x 10^10 pfu/ml, anti-M13-HRP/TMB.
Assay [18] has as its target T1, human CD96 (human). Kind of assay: phage ELISA on coated CD96 (4 ug/ml), phage 9 x 10^7 pfu/ml, anti-M13-HRP/TMB.
The target in assay [19] is T2, human TIGIT (human). As to the kind of experiment: phage ELISA on coated TIGIT (4 ug/ml), phage 3 x 10^9 pfu/ml, anti-M13-HRP/TMB.
The target of assay [20] is T1, human CD96 (human). As to the kind of experiment: phage ELISA on coated CD96 (4 ug/ml), phage 5 x 10^10 pfu/ml, anti-M13-HRP/TMB.
The target of assay [21] is T1, human CD96 (human). As to the kind of experiment: phage ELISA on coated CD96 (4 ug/ml), phage 1 x 10^11 pfu/ml, anti-M13-HRP/TMB.
In assay [22] the target is T1, human CD96 (human). As to the kind of experiment: phage ELISA on coated CD96 (4 ug/ml), phage 4.8 x 10^8 pfu/ml (so in the source), anti-M13-HRP/TMB.
Assay [23] addresses T2, human TIGIT (human). Kind of assay: phage ELISA on coated TIGIT (4 ug/ml), phage 5 x 10^10 pfu/ml, anti-M13-HRP/TMB.
In assay [24] the target is T1, human CD96 (human). As to the kind of experiment: phage ELISA on coated CD96 (4 ug/ml), phage 7.5 x 10^8 pfu/ml, anti-M13-HRP/TMB.
In assay [25] the target is BSA (UniProt P02769). As to the kind of experiment: phage ELISA on coated BSA, phage 1.2 x 10^10 pfu/ml, anti-M13-HRP/TMB.
In assay [26] the target is BSA (UniProt P02769). As to the kind of experiment: phage ELISA on coated BSA, phage 2.5 x 10^10 pfu/ml, anti-M13-HRP/TMB.
The target in assay [27] is BSA (UniProt P02769). As to the kind of experiment: phage ELISA on coated BSA, phage 4.8 x 10^8 pfu/ml (so in the source), anti-M13-HRP/TMB.
In assay [28] the target is BSA (UniProt P02769). As to the kind of experiment: phage ELISA on coated BSA, phage 1.5 x 10^9 pfu/ml, anti-M13-HRP/TMB.
Assay [29] deals with BSA (UniProt P02769). As to the kind of experiment: phage ELISA on coated BSA, phage 1 x 10^11 pfu/ml, anti-M13-HRP/TMB.
The target of assay [30] is BSA (UniProt P02769). As to the kind of experiment: phage ELISA on coated BSA, phage 7.5 x 10^8 pfu/ml, anti-M13-HRP/TMB.
Assay [31] concerns the target BSA (UniProt P02769). As to the kind of experiment: phage ELISA on coated BSA, phage 0 pfu/ml (no phage, background), anti-M13-HRP/TMB.
Assay [32] concerns the target BSA (UniProt P02769). Kind of assay: phage ELISA on coated BSA, phage 3 x 10^9 pfu/ml, anti-M13-HRP/TMB.
Assay [33] addresses BSA (UniProt P02769). As to the kind of experiment: phage ELISA on coated BSA, phage 9 x 10^7 pfu/ml, anti-M13-HRP/TMB.
Assay [34] concerns the target BSA (UniProt P02769). Kind of assay: phage ELISA on coated BSA, phage 5 x 10^10 pfu/ml, anti-M13-HRP/TMB.
The target of assay [35] is BSA (UniProt P02769). As to the kind of experiment: phage ELISA on coated BSA, phage 3.7 x 10^8 pfu/ml, anti-M13-HRP/TMB.
Assay [36] addresses BSA (UniProt P02769). As to the kind of experiment: phage ELISA on coated BSA, phage 6 x 10^9 pfu/ml, anti-M13-HRP/TMB.

UniProt P02769, sequence (P02769 25-607 limits assumed): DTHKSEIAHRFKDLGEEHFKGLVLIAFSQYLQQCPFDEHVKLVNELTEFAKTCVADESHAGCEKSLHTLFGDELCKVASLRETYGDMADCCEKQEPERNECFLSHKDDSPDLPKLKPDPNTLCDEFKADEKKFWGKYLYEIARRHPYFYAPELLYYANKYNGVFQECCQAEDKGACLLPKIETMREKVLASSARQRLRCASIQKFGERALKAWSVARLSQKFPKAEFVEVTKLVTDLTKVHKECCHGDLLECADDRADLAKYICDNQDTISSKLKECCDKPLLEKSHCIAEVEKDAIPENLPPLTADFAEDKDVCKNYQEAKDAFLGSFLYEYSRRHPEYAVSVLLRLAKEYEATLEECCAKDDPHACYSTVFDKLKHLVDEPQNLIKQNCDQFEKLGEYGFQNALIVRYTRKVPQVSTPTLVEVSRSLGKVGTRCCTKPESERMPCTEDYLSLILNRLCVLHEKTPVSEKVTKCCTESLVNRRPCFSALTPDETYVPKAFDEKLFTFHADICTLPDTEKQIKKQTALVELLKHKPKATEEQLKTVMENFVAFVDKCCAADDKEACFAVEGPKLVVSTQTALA

For the molecule irrelevant phage, the phage ELISA signal in assay [1] is 0.01; in [2], 0.02; in assay [3], 0.09; in assay [4], 0.03; in assay [5], 0.04; in [6] it was 0.04. The phage ELISA signal in assay [7] came out at 0.03; in [8] it was 0.08; in [9] it was 0.04; in [10], 0.15; in assay [11], 0.05; in [12], 0.03. The phage ELISA signal in assay [13] was 0.02; in assay [14], 0.24; in assay [15] it was 0.25; in assay [16], 0.18; in assay [17] it was 0.08; in [18], 0.03. The phage ELISA signal in assay [19] stood at 0.07; in [20], 0.31; in assay [21] it was 0.59; in assay [22] it was 0.02; in assay [23], 0.31; in [24] it was 0.02.

B1: anti-CD96 clone G1 scFv (R7P1-G1), displayed on phage (scFv, part only; not given: linker, domain order, phage fusion, V domains shown, not shown: another chain or arm of the molecule; large carriers; small tags and cut ends)
VH: EVQLVESGGDLVKPAGSLRLSCVASGFPFSDSDMNWVRQAPGKGLQWVAGIDEGATDTGYADAVKGRFTISRDDAKNTLYLQMNSLRADDTAMYYCAAGGNFAYWGQGTLVTVSS
VL: DIVMTQTPLSLSVSPGEPASISCKASQSLLHSNGNTYLYWFRQKPGQSPQGLIYLVSKRFSWVPDRFSGSGSGTDFTLRISRVEADDAGLYYCGQGIQYPYTFSQGTKLEIK
On to B1, for which the phage ELISA signal in [25] was found to be 0.02; in [26], 0.03; in [1], 0.95; in [2] it was 2.11; in assay [27] it was 0.01; in assay [28], 0.02. The phage ELISA signal in assay [29] worked out at 0.06; in assay [30], 0.01; in assay [31], 0.05; in assay [32] it was 0.02; in [8] it was 2.28; in assay [11], 0.05. Besides, the phage ELISA signal in assay [13] was 1.73; in [33] it was 0.03; in [34], 0.04; in assay [35] it was 0.02; in assay [16], 2.65; in assay [17] it was 2.59. The phage ELISA signal in [18] turned out to be 0.38; in assay [20], 2.68; in assay [36] it was 0.02; in [21], 2.61; in [22], 0.63; in assay [24], 1.36.

B2: anti-TIGIT clone C2 scFv (R8P1-C2), displayed on phage (scFv, part only; not given: linker, domain order, phage fusion, V domains shown, not shown: another chain or arm of the molecule; large carriers; small tags and cut ends)
VH: GVQLVESGGDLVKPAGSLRLSCVASGFTFSNYGMSWVRQAPGKGLQWVASIASGGSATAYADAVKGRFTLSRDDAKNTLYLQMNNLRTEDTSMYYCVAPGFQYWGQGTLVTVSS
VL: DIVMTQTPLSLSVSPGETASISCKASQSLLHSNGNTYLFWFRQKSGQSPQRLIYKVSNRDPGVPDRLSGSGSGTDFTLRISRVEADDAGVYYCGQGIQIPRTFGQGTKLEIK
B2: the phage ELISA signal in assay [25] came out at 0.04; in assay [26], 0.04; in assay [27], 0.02; in assay [3] it was 2.58; in assay [4] it was 1.99; in [28], 0.02. Moreover, the phage ELISA signal was 0.07 in assay [29]; 2.34 in [5]; 0.01 in assay [30]; 0.04 in [31]; 0.79 in [6]; 0.02 in assay [32]. Also, the phage ELISA signal was 1.21 in [7]; 0.03 in [9]; 2.54 in assay [10]; 1.61 in assay [12]; 2.05 in assay [14]; 0.03 in [33]. The phage ELISA signal in assay [15] came out at 2.66; in assay [34] it was 0.04; in assay [35], 0.02; in assay [19], 2.52; in assay [36] it was 0.03; in assay [23], 2.53.
